These results are taken from article PMC2119506.

The assay deals with CSVTCG binding protein (human (endogenous in A549)). As to the kind of experiment: radioligand binding.

Turning to “thrombospondin (from UniProt P07996 19-1170) (natural protein)”, the percent inhibition of binding came out at 64 % inhibition.
